The record followed here is FireProtDB (doi:10.1073/pnas.0910421107).

B1: Ribose import binding protein RbsB, P02925 (parent)
chain: MNMKKLATLVSAVALSATVSANAMAKDTIALVVSTLNNPFFVSLKDGAQKEADKLGYNLVVLDSQNNPAKELANVQDLTVRGTKILLINPTDSDAVGNAVKMANQANIPVITLDRQATKGEVVSHIASDNVLGGKIAGDYIAKKAGEGAKVIELQGIAGTSAARERGEGFQQAVAAHKFNVLASQPADFDRIKGLNVMQNLLTAHPDVQAVFAQNDEMALGALRALQTAGKSDVMVVGFDGTPDGEKAVNDGKLAATIAQLPDQIGAKGVETADKVLKGEKVQAKYPVDLKLVVKQ

The variants in the data set derive from B1. As to conditions: Escherichia coli (strain K12), pH 7.6, Thermal, MOPS 25 mM, Potassium chloride 100 mM, structure 2DRI, whole UniProt chain shown.
Where [1] appears, read: 25 °C, Quantitative cysteine reactivity.
Where [2] appears, read: Quantitative cysteine reactivity.

Take MNMKKLATLVSAVALSATVSANAMAKDTIALVVSTLNNPFFVSLKDGAQKEADKLGYNLVVLDSQNNPAKELANVQDLTVRGTKILCINPTDSDAVGNAVKMANQANIPVITLDRQATKGEVVSHIASDNVLGGKIAGDYIAKKAGEGAKVIELQGIAGTSAARERGEGFQQAVAAHKFNVLASQPADFDRIKGLNVMQNLLTAHPDVQAVFAQNDEMALGALRALQTAGKSDVMVVGFDGTPDGEKAVNDGKLAATIAQLPDQIGAKGVETADKVLKGEKVQAKYPVDLKLVVKQ [L87C]: for the setting “25 °C, Activity”, the “ddG of mutation (higher = less stable)” value was 2.7 kcal/mol, the “unfolding enthalpy (van 't Hoff)” value was found to be 81 kcal/mol and the unfolding free energy came out at 3.2 kcal/mol. Also, under setting [1], the “unfolding enthalpy (van 't Hoff)” value was found to be 81 kcal/mol and the unfolding free energy amounted to 3.2 kcal/mol. Where the note is “Activity”, the Tm (in general, the temperature at which the thermal transition is half complete) turned out to be 54 °C and the “change of melting temperature, mutant - wild type (higher = more stable)” value (“change of melting temperature, mutant” for short) is -8.6 °C. For the same variant, under setting [2], the Tm stood at 54 °C and the “change of melting temperature, mutant” value was -8.6 °C.

For MNMKKLATLVSAVALSATVSANAMAKDTIALVVSTLNNPFFVSLKDGAQKEADKLGYNLVVLDSQNNPAKELANVQDLTVRGTKILLINPTDSDAVGNAVKMANQANIPVITLDRQATKGEVVSHIASDNVLGGKIAGDYIAKKAGEGAKVIELQGIAGTSAARERGEGFQQAVAAHKFNVLASQPADFDRIKGLNVMQNLLTAHPDVQAVFCQNDEMALGALRALQTAGKSDVMVVGFDGTPDGEKAVNDGKLAATIAQLPDQIGAKGVETADKVLKGEKVQAKYPVDLKLVVKQ [A213C], under setting [1], the “unfolding enthalpy (van 't Hoff)” value stood at 91 kcal/mol and the unfolding free energy was determined as 4.1 kcal/mol. Moreover, where the note is “Activity”, the Tm worked out at 56 °C and the “change of melting temperature, mutant” value was -6.6 °C. Moreover, under setting [2], the Tm was 56 °C and the “change of melting temperature, mutant” value is -6.6 °C.
